{"source": "paper PMC9502102", "about": "“Thrombin Determination Using Graphene Oxide Sensors with Co-Assisted Amplification”", "biological_target": "thrombin (UniProt P00734;P00734 328-363;364-622)", "test": "fluorescence recovery (FAM-TBA released from GO/capture DNA); FAM-TBA with capture DNA on PEG-blocked GO; thrombin 0.0025-15 nM; sensor LOD is not a Kd; GO 5 ug/mL, 10 nM FAM-DNA, 30 min incubation (covalent sensor); PBS listed in materials, PBS vs water compared in Fig. S6; pH, salt and temperature not in the m", "data": [{"binder": "AAAAGTCCGTGGTAGGGCAGGTTGGGGTGACT (ssDNA)", "note": "[Thrombin binding aptamer (TBA)]", "values": [{"measurement": "binding result", "result": "binds"}]}]}
